In US20220324969A1 (MYTHIC THERAPEUTICS, published 2022):

molecular target: CD33 (Sino Biological, Cat #12238-H08H) (UniProt P20138 18-259); experiment: BLI, IgG captured on anti-human Fc sensor, 50 nM CD33, pH 7.4 vs pH 5.4
Sequence (P20138 18-259 limits assumed): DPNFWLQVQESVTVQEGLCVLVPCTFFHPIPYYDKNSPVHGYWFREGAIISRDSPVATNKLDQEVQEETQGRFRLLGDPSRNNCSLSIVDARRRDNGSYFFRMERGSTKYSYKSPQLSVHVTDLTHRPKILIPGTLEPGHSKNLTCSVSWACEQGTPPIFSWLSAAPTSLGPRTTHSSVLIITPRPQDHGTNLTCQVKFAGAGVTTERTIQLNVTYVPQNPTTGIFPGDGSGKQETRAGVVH

Binder	binding result
MYT1336 (antibody, V domains shown, IgG; vadastuximab VH variant #2 (Y27H)) VH: QVQLVQSGAEVKKPGASVKVSCKASGHTFTNYDINWVRQAPGQGLEWIGWIYPGDGSTKYNEKFKAKATLTADTSTSTAYMELRSLRSDDTAVYYCASGYEDAMDYWGQGTTVTVSS VL: DIQMTQSPSSLSASVGDRVTINCKASQDINSYLSWFQQKPGKAPKTLIYRANRLVDGVPSRFSGSGSGQDYTLTISSLQPEDFATYYCLQYDEFPLTFGGGTKVEIK	binds
MYT1357 (antibody, V domains shown, IgG; vadastuximab VH variant #23 (E62H)) VH: QVQLVQSGAEVKKPGASVKVSCKASGYTFTNYDINWVRQAPGQGLEWIGWIYPGDGSTKYNHKFKAKATLTADTSTSTAYMELRSLRSDDTAVYYCASGYEDAMDYWGQGTTVTVSS VL: DIQMTQSPSSLSASVGDRVTINCKASQDINSYLSWFQQKPGKAPKTLIYRANRLVDGVPSRFSGSGSGQDYTLTISSLQPEDFATYYCLQYDEFPLTFGGGTKVEIK	binds
MYT1351 (antibody, V domains shown, IgG; vadastuximab VH variant #17 (G56H)) VH: QVQLVQSGAEVKKPGASVKVSCKASGYTFTNYDINWVRQAPGQGLEWIGWIYPGDHSTKYNEKFKAKATLTADTSTSTAYMELRSLRSDDTAVYYCASGYEDAMDYWGQGTTVTVSS VL: DIQMTQSPSSLSASVGDRVTINCKASQDINSYLSWFQQKPGKAPKTLIYRANRLVDGVPSRFSGSGSGQDYTLTISSLQPEDFATYYCLQYDEFPLTFGGGTKVEIK	binds
MYT1358 (antibody, V domains shown, IgG; vadastuximab VH variant #24 (K63H)) VH: QVQLVQSGAEVKKPGASVKVSCKASGYTFTNYDINWVRQAPGQGLEWIGWIYPGDGSTKYNEHFKAKATLTADTSTSTAYMELRSLRSDDTAVYYCASGYEDAMDYWGQGTTVTVSS VL: DIQMTQSPSSLSASVGDRVTINCKASQDINSYLSWFQQKPGKAPKTLIYRANRLVDGVPSRFSGSGSGQDYTLTISSLQPEDFATYYCLQYDEFPLTFGGGTKVEIK	binds
MYT1341 (antibody, V domains shown, IgG; vadastuximab VH variant #7 (Y32H)) VH: QVQLVQSGAEVKKPGASVKVSCKASGYTFTNHDINWVRQAPGQGLEWIGWIYPGDGSTKYNEKFKAKATLTADTSTSTAYMELRSLRSDDTAVYYCASGYEDAMDYWGQGTTVTVSS VL: DIQMTQSPSSLSASVGDRVTINCKASQDINSYLSWFQQKPGKAPKTLIYRANRLVDGVPSRFSGSGSGQDYTLTISSLQPEDFATYYCLQYDEFPLTFGGGTKVEIK	binds
MYT1359 (antibody, V domains shown, IgG; vadastuximab VH variant #25 (F64H)) VH: QVQLVQSGAEVKKPGASVKVSCKASGYTFTNYDINWVRQAPGQGLEWIGWIYPGDGSTKYNEKHKAKATLTADTSTSTAYMELRSLRSDDTAVYYCASGYEDAMDYWGQGTTVTVSS VL: DIQMTQSPSSLSASVGDRVTINCKASQDINSYLSWFQQKPGKAPKTLIYRANRLVDGVPSRFSGSGSGQDYTLTISSLQPEDFATYYCLQYDEFPLTFGGGTKVEIK	binds
MYT1355 (antibody, V domains shown, IgG; vadastuximab VH variant #21 (Y60H)) VH: QVQLVQSGAEVKKPGASVKVSCKASGYTFTNYDINWVRQAPGQGLEWIGWIYPGDGSTKHNEKFKAKATLTADTSTSTAYMELRSLRSDDTAVYYCASGYEDAMDYWGQGTTVTVSS VL: DIQMTQSPSSLSASVGDRVTINCKASQDINSYLSWFQQKPGKAPKTLIYRANRLVDGVPSRFSGSGSGQDYTLTISSLQPEDFATYYCLQYDEFPLTFGGGTKVEIK	binds
MYT1339 (antibody, V domains shown, IgG; vadastuximab VH variant #5 (T30H)) VH: QVQLVQSGAEVKKPGASVKVSCKASGYTFHNYDINWVRQAPGQGLEWIGWIYPGDGSTKYNEKFKAKATLTADTSTSTAYMELRSLRSDDTAVYYCASGYEDAMDYWGQGTTVTVSS VL: DIQMTQSPSSLSASVGDRVTINCKASQDINSYLSWFQQKPGKAPKTLIYRANRLVDGVPSRFSGSGSGQDYTLTISSLQPEDFATYYCLQYDEFPLTFGGGTKVEIK	binds
MYT1340 (antibody, V domains shown, IgG; vadastuximab VH variant #6 (N31H)) VH: QVQLVQSGAEVKKPGASVKVSCKASGYTFTHYDINWVRQAPGQGLEWIGWIYPGDGSTKYNEKFKAKATLTADTSTSTAYMELRSLRSDDTAVYYCASGYEDAMDYWGQGTTVTVSS VL: DIQMTQSPSSLSASVGDRVTINCKASQDINSYLSWFQQKPGKAPKTLIYRANRLVDGVPSRFSGSGSGQDYTLTISSLQPEDFATYYCLQYDEFPLTFGGGTKVEIK	binds
MYT1337 (antibody, V domains shown, IgG; vadastuximab VH variant #3 (T28H)) VH: QVQLVQSGAEVKKPGASVKVSCKASGYHFTNYDINWVRQAPGQGLEWIGWIYPGDGSTKYNEKFKAKATLTADTSTSTAYMELRSLRSDDTAVYYCASGYEDAMDYWGQGTTVTVSS VL: DIQMTQSPSSLSASVGDRVTINCKASQDINSYLSWFQQKPGKAPKTLIYRANRLVDGVPSRFSGSGSGQDYTLTISSLQPEDFATYYCLQYDEFPLTFGGGTKVEIK	binds
MYT1350 (antibody, V domains shown, IgG; vadastuximab VH variant #16 (D55H)) VH: QVQLVQSGAEVKKPGASVKVSCKASGYTFTNYDINWVRQAPGQGLEWIGWIYPGHGSTKYNEKFKAKATLTADTSTSTAYMELRSLRSDDTAVYYCASGYEDAMDYWGQGTTVTVSS VL: DIQMTQSPSSLSASVGDRVTINCKASQDINSYLSWFQQKPGKAPKTLIYRANRLVDGVPSRFSGSGSGQDYTLTISSLQPEDFATYYCLQYDEFPLTFGGGTKVEIK	binds
MYT1347 (antibody, V domains shown, IgG; vadastuximab VH variant #13 (Y52H)) VH: QVQLVQSGAEVKKPGASVKVSCKASGYTFTNYDINWVRQAPGQGLEWIGWIHPGDGSTKYNEKFKAKATLTADTSTSTAYMELRSLRSDDTAVYYCASGYEDAMDYWGQGTTVTVSS VL: DIQMTQSPSSLSASVGDRVTINCKASQDINSYLSWFQQKPGKAPKTLIYRANRLVDGVPSRFSGSGSGQDYTLTISSLQPEDFATYYCLQYDEFPLTFGGGTKVEIK	binds
MYT1356 (antibody, V domains shown, IgG; vadastuximab VH variant #22 (N61H)) VH: QVQLVQSGAEVKKPGASVKVSCKASGYTFTNYDINWVRQAPGQGLEWIGWIYPGDGSTKYHEKFKAKATLTADTSTSTAYMELRSLRSDDTAVYYCASGYEDAMDYWGQGTTVTVSS VL: DIQMTQSPSSLSASVGDRVTINCKASQDINSYLSWFQQKPGKAPKTLIYRANRLVDGVPSRFSGSGSGQDYTLTISSLQPEDFATYYCLQYDEFPLTFGGGTKVEIK	binds
MYT1345 (antibody, V domains shown, IgG; vadastuximab VH variant #11 (W50H)) VH: QVQLVQSGAEVKKPGASVKVSCKASGYTFTNYDINWVRQAPGQGLEWIGHIYPGDGSTKYNEKFKAKATLTADTSTSTAYMELRSLRSDDTAVYYCASGYEDAMDYWGQGTTVTVSS VL: DIQMTQSPSSLSASVGDRVTINCKASQDINSYLSWFQQKPGKAPKTLIYRANRLVDGVPSRFSGSGSGQDYTLTISSLQPEDFATYYCLQYDEFPLTFGGGTKVEIK	binds
MYT1354 (antibody, V domains shown, IgG; vadastuximab VH variant #20 (K59H)) VH: QVQLVQSGAEVKKPGASVKVSCKASGYTFTNYDINWVRQAPGQGLEWIGWIYPGDGSTHYNEKFKAKATLTADTSTSTAYMELRSLRSDDTAVYYCASGYEDAMDYWGQGTTVTVSS VL: DIQMTQSPSSLSASVGDRVTINCKASQDINSYLSWFQQKPGKAPKTLIYRANRLVDGVPSRFSGSGSGQDYTLTISSLQPEDFATYYCLQYDEFPLTFGGGTKVEIK	binds
MYT1343 (antibody, V domains shown, IgG; vadastuximab VH variant #9 (I34H)) VH: QVQLVQSGAEVKKPGASVKVSCKASGYTFTNYDHNWVRQAPGQGLEWIGWIYPGDGSTKYNEKFKAKATLTADTSTSTAYMELRSLRSDDTAVYYCASGYEDAMDYWGQGTTVTVSS VL: DIQMTQSPSSLSASVGDRVTINCKASQDINSYLSWFQQKPGKAPKTLIYRANRLVDGVPSRFSGSGSGQDYTLTISSLQPEDFATYYCLQYDEFPLTFGGGTKVEIK	binds
MYT1338 (antibody, V domains shown, IgG; vadastuximab VH variant #4 (F29H)) VH: QVQLVQSGAEVKKPGASVKVSCKASGYTHTNYDINWVRQAPGQGLEWIGWIYPGDGSTKYNEKFKAKATLTADTSTSTAYMELRSLRSDDTAVYYCASGYEDAMDYWGQGTTVTVSS VL: DIQMTQSPSSLSASVGDRVTINCKASQDINSYLSWFQQKPGKAPKTLIYRANRLVDGVPSRFSGSGSGQDYTLTISSLQPEDFATYYCLQYDEFPLTFGGGTKVEIK	binds
MYT1346 (antibody, V domains shown, IgG; vadastuximab VH variant #12 (I51H)) VH: QVQLVQSGAEVKKPGASVKVSCKASGYTFTNYDINWVRQAPGQGLEWIGWHYPGDGSTKYNEKFKAKATLTADTSTSTAYMELRSLRSDDTAVYYCASGYEDAMDYWGQGTTVTVSS VL: DIQMTQSPSSLSASVGDRVTINCKASQDINSYLSWFQQKPGKAPKTLIYRANRLVDGVPSRFSGSGSGQDYTLTISSLQPEDFATYYCLQYDEFPLTFGGGTKVEIK	binds
MYT1352 (antibody, V domains shown, IgG; vadastuximab VH variant #18 (S57H)) VH: QVQLVQSGAEVKKPGASVKVSCKASGYTFTNYDINWVRQAPGQGLEWIGWIYPGDGHTKYNEKFKAKATLTADTSTSTAYMELRSLRSDDTAVYYCASGYEDAMDYWGQGTTVTVSS VL: DIQMTQSPSSLSASVGDRVTINCKASQDINSYLSWFQQKPGKAPKTLIYRANRLVDGVPSRFSGSGSGQDYTLTISSLQPEDFATYYCLQYDEFPLTFGGGTKVEIK	binds
MYT1348 (antibody, V domains shown, IgG; vadastuximab VH variant #14 (P53H)) VH: QVQLVQSGAEVKKPGASVKVSCKASGYTFTNYDINWVRQAPGQGLEWIGWIYHGDGSTKYNEKFKAKATLTADTSTSTAYMELRSLRSDDTAVYYCASGYEDAMDYWGQGTTVTVSS VL: DIQMTQSPSSLSASVGDRVTINCKASQDINSYLSWFQQKPGKAPKTLIYRANRLVDGVPSRFSGSGSGQDYTLTISSLQPEDFATYYCLQYDEFPLTFGGGTKVEIK	binds
MYT1349 (antibody, V domains shown, IgG; vadastuximab VH variant #15 (G54H)) VH: QVQLVQSGAEVKKPGASVKVSCKASGYTFTNYDINWVRQAPGQGLEWIGWIYPHDGSTKYNEKFKAKATLTADTSTSTAYMELRSLRSDDTAVYYCASGYEDAMDYWGQGTTVTVSS VL: DIQMTQSPSSLSASVGDRVTINCKASQDINSYLSWFQQKPGKAPKTLIYRANRLVDGVPSRFSGSGSGQDYTLTISSLQPEDFATYYCLQYDEFPLTFGGGTKVEIK	binds
MYT1353 (antibody, V domains shown, IgG; vadastuximab VH variant #19 (T58H)) VH: QVQLVQSGAEVKKPGASVKVSCKASGYTFTNYDINWVRQAPGQGLEWIGWIYPGDGSHKYNEKFKAKATLTADTSTSTAYMELRSLRSDDTAVYYCASGYEDAMDYWGQGTTVTVSS VL: DIQMTQSPSSLSASVGDRVTINCKASQDINSYLSWFQQKPGKAPKTLIYRANRLVDGVPSRFSGSGSGQDYTLTISSLQPEDFATYYCLQYDEFPLTFGGGTKVEIK	binds
